Measurements as given in patent publication US20040197325A1 (PDL BIOPHARMA, published 2004).

Tests used:
[1] = biological target: T1, GPR64 protein (SEQ ID NO:2) (UniProt Q8IZP9 38-1017); test: FACS
T1 chain: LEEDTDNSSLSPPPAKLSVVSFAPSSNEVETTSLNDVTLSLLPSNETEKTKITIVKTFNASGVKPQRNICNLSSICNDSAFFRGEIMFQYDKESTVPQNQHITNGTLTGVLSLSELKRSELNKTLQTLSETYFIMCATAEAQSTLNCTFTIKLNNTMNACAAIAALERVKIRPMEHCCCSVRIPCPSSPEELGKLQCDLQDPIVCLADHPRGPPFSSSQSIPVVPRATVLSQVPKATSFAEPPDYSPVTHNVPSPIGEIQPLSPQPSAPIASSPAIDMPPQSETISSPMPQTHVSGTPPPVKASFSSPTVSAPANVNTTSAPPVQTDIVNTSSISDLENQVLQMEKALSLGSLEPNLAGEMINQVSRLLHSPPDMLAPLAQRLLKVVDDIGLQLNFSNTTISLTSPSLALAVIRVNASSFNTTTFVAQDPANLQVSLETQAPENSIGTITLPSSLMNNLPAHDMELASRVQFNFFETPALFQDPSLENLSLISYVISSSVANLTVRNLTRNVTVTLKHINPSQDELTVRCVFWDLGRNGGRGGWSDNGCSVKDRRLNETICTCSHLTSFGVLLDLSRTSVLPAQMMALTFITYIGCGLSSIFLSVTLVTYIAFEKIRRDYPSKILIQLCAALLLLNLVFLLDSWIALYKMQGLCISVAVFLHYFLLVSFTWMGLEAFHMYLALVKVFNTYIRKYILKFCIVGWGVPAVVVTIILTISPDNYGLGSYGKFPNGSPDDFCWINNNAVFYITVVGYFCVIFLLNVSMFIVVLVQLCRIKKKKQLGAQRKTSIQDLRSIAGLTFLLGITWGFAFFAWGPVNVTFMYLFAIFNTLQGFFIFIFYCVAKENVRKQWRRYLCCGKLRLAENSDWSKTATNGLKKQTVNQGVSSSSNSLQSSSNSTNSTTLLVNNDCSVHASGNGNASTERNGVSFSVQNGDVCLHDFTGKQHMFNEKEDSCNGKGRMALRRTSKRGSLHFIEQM

[2] = biological target: T2, GPR64 protein (SEQ ID NO:2) (human, UniProt Q8IZP9 38-1017); test: competitive FACS on H460 cells, confirmed by Biacore
T2 construct: Endogenous GPR64 on human tumor cells (NCI-H460) or in tissue sections; also called Ov1; HE6
Procedure: Epitope mapping was performed by competitive FACS assay. Briefly, H460 cells were incubated with 25 ug/ml unlabeled antibody for 1 hr on ice, at which time various amounts of FITC labeled antibody was added. After 30 additional minutes, cells were washed one time and fluorescence was measured by flow cytometry. All data was confirmed by Biacore.

[3] = biological target: T3, human GPR64-Fc fusion protein (human, UniProt Q8IZP9 38-591); test: affinity screen of Example 4 (Biacore/FACS); form of the target not restated
T3 construct: Immunogen, and the analyte in the Biacore kinetics

EC50 [1]: ~4 nM
binding result [2]: binds
binding result [3]: binds
B1: GPR64-18 (antibody, V domains shown)
VH: QVSLKESGPGILQPSQTLSLTCSFSGFSLSTSGMGVSWIRQPSGKGLEWLAHIYWDDDKRYNPSLKSRLTISKDTSSNLVFLKITSVDTADTATYYCARREVRRDYYAMDYWGQGTSVTVSS
VL: SIVMTQTPKFLLVSAGDRITIACRASQSVSNDVAWYQQKPGQSPKLLINYTSNRYTGVPDRFTGSGYGTDFTFTISTVQAEDLAVYFCQQAYSSPWTFGGGTKLEIK
notes: Mouse monoclonal antibody raised against GPR64-Fc; also called GPR64-18 antibody
